Data taken from article PMC8956953 (The Journal of Biological Chemistry, 2022).

molecular target: T1, recombinant human full-length tau protein (htau40) (human, UniProt P10636-8 1-441); experiment: peptide or protein array; ProtoArray Human Protein Microarrays v5.1, ~9000 N-terminal GST-tagged human proteins spotted on nitrocellulose-coated slides; htau40 at 5 and 50 ng/μl in probe buffer (1x PBS, 0.1% Tween-20, 1x synthetic block), 90 min at 4 °C; detected with anti-tau K9JA and Alexa Fluor 647 secondary antibody; conditions: both partners purified
T1 construct: human microtubule-associated protein tau, longest CNS splicing variant 2N4R (htau40); also called recombinant htau40; 2N4R; source: E. coli-derived recombinant protein

| Binder | binding result |
| --- | --- |
| S100 calcium-binding protein B, spotted on the ProtoArray (natural protein, human, UniProt P04271 1-92, looked up, also called S100β; not shown: GST, N-terminal, kept) MSELEKAMVALIDVFHQYSGREGDKHKLKKSELKELINNELSHFLEEIKEQEVVDKVMETLDNDGDGECDFQEFMAFVAMVTTACHEFFEHE | binds |
| RPS6KA6, spotted on the ProtoArray (enzyme, human, UniProt Q9UK32 1-745, looked up, human RPS6KA6 kinase; not shown: GST, N-terminal, kept) MLPFAPQDEPWDREMEVFSGGGASSGEVNGLKMVDEPMEEGEADSCHDEGVVKEIPITHHVKEGYEKADPAQFELLKVLGQGSFGKVFLVRKKTGPDAGQLYAMKVLKKASLKVRDRVRTKMERDILVEVNHPFIVKLHYAFQTEGKLYLILDFLRGGDVFTRLSKEVLFTEEDVKFYLAELALALDHLHQLGIVYRDLKPENILLDEIGHIKLTDFGLSKESVDQEKKAYSFCGTVEYMAPEVVNRRGHSQSADWWSYGVLMFEMLTGTLPFQGKDRNETMNMILKAKLGMPQFLSAEAQSLLRMLFKRNPANRLGSEGVEEIKRHLFFANIDWDKLYKREVQPPFKPASGKPDDTFCFDPEFTAKTPKDSPGLPASANAHQLFKGFSFVATSIAEEYKITPITSANVLPIVQINGNAAQFGEVYELKEDIGVGSYSVCKRCIHATTNMEFAVKIIDKSKRDPSEEIEILMRYGQHPNIITLKDVFDDGRYVYLVTDLMKGGELLDRILKQKCFSEREASDILYVISKTVDYLHCQGVVHRDLKPSNILYMDESASADSIRICDFGFAKQLRGENGLLLTPCYTANFVAPEVLMQQGYDAACDIWSLGVLFYTMLAGYTPFANGPNDTPEEILLRIGNGKFSLSGGNWDNISDGAKDLLSHMLHMDPHQRYTAEQILKHSWITHRDQLPNDQPKRNDVSHVVKGAMVATYSALTHKTFQPVLEPVAASSLAQRRSMKKRTSTGL | binds |
| YES1, spotted on the ProtoArray (enzyme, human YES1 kinase; not shown: GST, N-terminal, kept) not shown | binds |
